Assay [1] has as its target wild-type HMPV F protein (soluble, secreted, with C-terminal GCNt trimerization domain) (human metapneumovirus, B2 strain). Put plainly: SPR; BiOptix 404pi; F proteins captured on NiHC1000m chip through their C-terminal His tag to 120 RU; Fab injected at 300 to 0.14 nM, 100 ul/min; 10 mM HEPES pH 7.2, 150 mM NaCl, 0.005% Tween 20, 50 uM EDTA; simple Langmuir model.
Assay [2] has the same target. Put plainly: SEC; gel filtration of the purified F proteins alone (Superdex-200, 25 mM sodium phosphate pH 7.4, 100 mM NaCl). For orientation: SEC sorts molecules by how far they enter the pores of the column.
Assay [3] has the same target. Put plainly: negative-stain EM; purified F proteins on carbon-coated copper grids, 2% uranyl formate; unheated and heated to 50°C.
Assay [4] has as its target DS-7 Fab (anti-HMPV F neutralizing antibody). Put plainly: SPR; as a1 (ProteOn, Fab immobilised, F injected, bivalent analyte model), but HMPV F proteins heated to 50°C for 30 minutes (post-fusion form).
For assay [5] the target is unchanged. Put plainly: SPR; Bio-Rad ProteOn XPR36; biotinylated antibodies (Fabs) immobilised on NLC chip at 80-300 RU; unheated HMPV F injected at 500, 166.7, 55.5, 18.5, 6.2, 0 nM, 100 ul/min; 20 mM NaPO4 pH 7.4, 100 mM NaCl, 10 mM imidazole, 0.005% Tween 20; bivalent analyte model. Background: In SPR one partner is held on a chip, and binding of the other changes the refractive index at the surface.

Usually koff stands for a measure of how fast the partners let go of each other. By kon is commonly meant a measure of how fast the partners come together. Low readings indicate slower complex formation, high ones faster complex formation. By stoichiometry N is commonly meant a count of units in the complex or per binding partner.

In assay [1], “DS-7 Fab (anti-HMPV F neutralizing antibody)” had a Kd of 0.3 nM, a dissociation rate constant (koff) of 0.000197 s⁻¹, a kon of 684000 M⁻¹ s⁻¹ and a t1/2 of 59 min.

On to “wild-type HMPV F protein (soluble, secreted, with C-terminal GCNt trimerization domain) (natural protein)”, for which the stoichiometry N in assay [2] was 3. The stoichiometry N in assay [3] turned out to be 3. In addition, in assay [4], the Kd stood at 2.8 nM, the koff is 0.000258 s⁻¹, the on-rate (kon) is 95700 M⁻¹ s⁻¹ and the t1/2 stood at 45 min. In assay [5], the Kd is 0.83 nM, the koff stood at 0.00012 s⁻¹, the on-rate (kon) was 147000 M⁻¹ s⁻¹ and the t1/2 came out at 96 min.
